From paper PMC6009930, “Allosteric inhibition of carnosinase (CN1) by inducing a conformational shift” (Journal of Enzyme Inhibition and Medicinal Chemistry, 2017)

Substrate: NCCC(=O)N[C@@H](Cc1cnc[nH]1)C(=O)O
Experiment: OPA fluorescence assay of liberated histidine, Michaelis-Menten fit
Format: biochemical, Homo sapiens
Settings: pH 7, control without thiol
Text: OPA fluorescence assay of liberated histidine, Michaelis-Menten fit on recombinant CN1 (rCN1)

B1: recombinant CN1 (rCN1) (Homo sapiens) (protein)
chain: SSPSPPPALLEKVFQYIDLHQDEFVQTLKEWVAIESDSVQPVPRFRQELFRMMAVAADTLQRLGARVASVDMGPQQLPDGQSLPIPPVILAELGSDPTKGTVCFYGHLDVQPADRGDGWLTDPYVLTEVDGKLYGRGATDNKGPVLAWINAVSAFRALEQDLPVNIKFIIEGMEEAGSVALEELVEKEKDRFFSGVDYIVISDNLWISQRKPAITYGTRGNSYFMVEVKCRDQDFHSGTFGGILHEPMADLVALLGSLVDSSGHILVPGIYDEVVPLTEEEINTYKAIHLDLEEYRNSSRVEKFLFDTKEEILMHLWRYPSLSIHGIEGAFDEPGTKTVIPGRVIGKFSIRLVPHMNVSAVEKQVTRHLEDVFSKRNSSNKMVVSMTLGLHPWIANIDDTQYLAAKRAIRTVFGTEPDMIRDGSTIPIAKMFQEIVHKSVVLIPLGAVDDGEHSQNEKINRWNYIEGTKLFAAFFLEMAQLH
notes: FLAG-tagged, secreted by transfected CHO cells, purified from supernatant; homodimer in vitro; dinuclear Zn site
Km: 800 ± 100 µM | Vmax: 0.07 µmol/min/mg
